Assay results as given in patent publication US20200038523A1 (TECHNISCHE UNIVERSIT T M NCHEN, published 2020).

Target: T1, rhPSMA, extracellular part of human prostate-specific membrane antigen (residues 44-750) with native … (human, UniProt Q04609 44-750)
T1 construct: range 44-750; Secreted from Schneider S2 insect cells, glycosylated; also called wild-type rhPSMA; rhGCPII
Assay: ELISA: rhPSMA coated on MaxiSorp plate, Anticalin dilution series, detection via Strep-tag II with StrepTactin/AP, absorbance at 405 nm
Text: Binding activities of Anticalins selected from the original nave library (A) or resulting from subsequent affinity maturation of the A3 variant (B) were compared in an ELISA. A 96-well MaxiSorp plate was coated with rhPSMA (or ovalbumin as a negative control, not shown) and purified Anticalin variants were applied in dilution series. Anticalin binding was detected using StrepTactin/AP conjugate, followed by chromogenic reaction. Absorption was plotted against the Anticalin concentration and data were analyzed by curve fitting. Binding curves for the best performing clones A3 and A3A5 are shown as solid lines. (CE) SPR sensograms measured for Anticalins A3, A3A5 and A3A5.1 on a BIAcore 2000 instrument. […]
50 μL of rhPSMA (5 μg/mL in TBS) was directly adsorbed onto the surface of a MaxiSorp 96-well plate overnight at 4° C. […] The plates were washed three times and bound Anticalins were detected with StrepTactin-AP as described further above. The data were analyzed using Prism 5 software (GraphPad) and absorption values (A) were fitted according to the formula ΔA=Aₘₐₓ[Lₜₒₜ]/(KD+[Lₜₒₜ]) with the concentration of the applied lipocalin variant [Lₜₒₜ] and the dissociation constant KD.
Specific binding activities of selected Anticalins toward rhPSMA as well as apparent affinity constants were initially determined by ELISA in 96-well Maxisorp plates coated with the recombinant wild-type PSMA protein. […]

T1 sequence (Q04609 44-750 limits assumed): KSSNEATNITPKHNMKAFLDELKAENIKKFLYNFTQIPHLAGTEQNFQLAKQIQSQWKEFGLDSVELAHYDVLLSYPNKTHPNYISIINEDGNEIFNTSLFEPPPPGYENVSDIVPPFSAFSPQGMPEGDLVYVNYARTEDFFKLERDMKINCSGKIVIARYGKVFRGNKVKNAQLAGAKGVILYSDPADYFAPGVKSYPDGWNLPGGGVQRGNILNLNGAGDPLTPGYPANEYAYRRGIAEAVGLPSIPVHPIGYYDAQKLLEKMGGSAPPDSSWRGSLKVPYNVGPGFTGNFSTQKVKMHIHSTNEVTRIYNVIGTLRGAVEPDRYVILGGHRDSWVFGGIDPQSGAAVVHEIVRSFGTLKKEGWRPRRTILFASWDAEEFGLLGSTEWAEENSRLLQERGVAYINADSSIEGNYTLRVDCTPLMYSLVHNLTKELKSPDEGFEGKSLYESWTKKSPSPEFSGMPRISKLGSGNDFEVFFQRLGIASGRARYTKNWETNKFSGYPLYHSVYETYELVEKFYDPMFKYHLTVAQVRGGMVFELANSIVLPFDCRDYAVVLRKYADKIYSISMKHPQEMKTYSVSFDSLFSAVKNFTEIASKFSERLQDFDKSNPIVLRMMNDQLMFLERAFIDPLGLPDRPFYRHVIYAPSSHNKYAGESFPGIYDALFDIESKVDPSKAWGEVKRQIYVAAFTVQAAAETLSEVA

Row | EC50 (read off the curve) | Binder
1 | ~10 nM | Anticalin candidate A2 (designed binder, not shown: C-terminal Strep-tag II) QDSTSDLIPAPPLSKVPLQQNFQDNQFHGKWYVVGRAGNKPLREDKDPLKMWATIYELKEDKSYNVTIVWFDFKKCWYRISTFVPGSQPGEFTLGRIKSAPGVTSGLVRVVSTNYNQHAMVFFKYVFQNREWFHITLYGRTKELTSELKENFIRFSKSLGLPENHIVFPVPIDQCIDG
2 | ~6 nM | Anticalin candidate H5 (designed binder, not shown: C-terminal Strep-tag II) QDSTSDLIPAPPLSKVPLQQNFQDNQFHGKWYVVGTAGNWPLREDKDPHKMSATIYELKEDKSYNVTNVQFSSKKCLYFIGTFVPGSQPGEFTLGPIKSAPGQTSGLVRVVSTNYNQHAMVFFKQVIQNREAFIITLYGRTKELTSELKENFIRFSKSLGLPENHIVFPVPIDQCIDG
